Experimental findings from the nanobody polyreactivity screen of Harvey et al. (2022) are described below.

This data set in a line: yeast display, Sf9 membrane polyspecificity reagent, FACS + sequencing; frameworks hold sequencing errors. The method in brief:
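Synthetic nanobody libraries on Saccharomyces cerevisiae BJ5465 were galactose-induced for 36–48 hours, stained 1 hour at 4 °C with 10% biotinylated, detergent-solubilized Sf9 membrane reagent and enriched on streptavidin microbeads. FACS then separated cells into low and high (top ~1%) gates by anti-HA (expression) and streptavidin (reagent binding) fluorescence. Genes were colony-PCR amplified, MiSeq 2 × 250 sequenced and CDR-length filtered. A clone's polyreactivity label is that of its gate of origin.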
Consider “QVQLVESGGGLVQAGGSIRLSCAASGSIFAPYAMGSYRQATGKVREFVAAISWSGGGTYYADSVQGRFTISRDNAKNTVNLQMNSLKPEDTAVYYCAAYRNKESIFRTILDYWGQGTQVTVSS”, for which the “polyreactivity (PSR sort gate)” value is “low polyreactivity”. Next, “QVQLVESGGGLVQAGGSIRLSCAASGSIFVDNARGWYRPAPGKERELVAAIRSRDTSTYYADSVKGRFTISRDNAKHTVYLQMNSLKPEDTAVYYCAARTSKRVSQYNYWGQGTQVTVSS”: “high polyreactivity”; “QVQLVESGGGLVQAGGSIRLSCAASGSTYGTNTMGWSRQAPGKERELVAGITSGGNTNYADSVKGRFTISRDNAKNTVYLQMNSLKPEDSAVYYCAPRYIYYYAYGYNYWGQGTHVTVSS”: “high polyreactivity”. Take “QVQLVESGGGLVQAGGSIRLSCAASGTIFRSYAMGWYRQAPGKERELVAAITSSSGSTYYADSVKGRFTISRDNAKNTVYLQMNSLKPEDTAGYYFNAPYWKSRFRAYYHWGQGTQVTVSS”: the “polyreactivity (PSR sort gate)” value is recorded as “high polyreactivity”. Next, “QVQLVESGGGLVQAGGSIRLTCAASGRIFYLNAMGWYRQAPGKEREMGAAITWSGGRTYYADSVKGRFTISRDNAKNTVYLQMNSLKPEDTAVYYCAAVPRPGPNTVLTPYGYWGQGTQVTVSS”: “high polyreactivity”. In the case of “QVQLVESGGGLVQAGGSIRSSCAASGRTFGSNAMGWSRQAPGKERELVAAISSTVSTNYADSVKGRFTISRDNAKNTVYLQMNSLKPEDTAVYYCNVTRHYSYVSEYDYWGQGTQVTVSS” it was “low polyreactivity”. Next, “QVQLVESGGGLVQAGGSLCLSCAGSGIFVYKAMGRYRQAPGKEREFVAAINKSGASTFYADSVKGRFTISRDNAKKTVYLQMNSLKPEDTAVYYCAKVPHVYRHYYYWGQGTQVTVSS”: “low polyreactivity”; “QVQLVESGGGLVQAGGSLGLSCAASGFTFHKYAMGWYRQAPGKERELVAAITSSGGSTYYADSVKGRFTISRDNAKNTVYLQMNSLKPEDTAVYYCAVGFYYFSSWYSYDYWGQGTQVTVSS”: “high polyreactivity”; “QVQLVESGGGLVQAGGSLGLSCAASGRSFYFYAMGWYRQAPGKERELVAALSRGGGTNYADSVKGRFTLSRDNATNTVYLQMNSLKPEDTAVYDCAARPGPYWTVTFRSPKYYYWGQGTQVTVSS”: “high polyreactivity”. Take “QVQLVESGGGLVQAGGSLGLSCAASGSNFHSYAMGWYRQAPGKERELVGAISWCGGSTNYSDSVKGRFTISRDNAKNTVYLQMNSLKPEDTAVYYCAAKEFGSDEYKTGSGYDYWGQCTQVTVSS”: the “polyreactivity (PSR sort gate)” value was “low polyreactivity”. As for “QVQLVESGGGLVQAGGSLGLSCAASGSTFQFYAMGWNRQAPGKERELVAAISWSSGSTYYADSVKGRFTISRDNAKNSVYLQMNSLKPEHTAVYYCNARYPWSYRYWDGGYWGQGTQVTVSS”, the “polyreactivity (PSR sort gate)” value is on record as “low polyreactivity”. In the case of “QVQLVESGGGLVQAGGSLLISCAASGSIFTCYAMGWYRQAPGKERELVAASTRGGSTYADSEKGRFTISRDNAKNTVYLQRKSLIPDVTGVYYCNAVYGVYDFKYWGQGTQVSVSS” it was “low polyreactivity”.

As to “QVQLVESGGGLVQAGGSLLLSCAASAFTSDVYAMGWYRQAPGKETELVADISARGGSTYYADSVKGRFTISRDNAKNTVYLQMNSLKPEDTAVYYCAAEVYVGTIGFYADFFYYPVYYWVQGTQVTVSS”, the “polyreactivity (PSR sort gate)” value is “low polyreactivity”. In the case of “QVQLVESGGGLVQAGGSLLLSCAASGFIFDYNAMGGYRPAPGKETELVAAISRSGGSTYADSVKGRFTFSRDNAMNTVYLQMNSLKPEDTAVYYCAADILSRSRSRRVDYWGQGTQVTVSS” it was “low polyreactivity”.

Consider “QVQLVESGGGLVQAGGSLLLSCAASGFTFSGYVMGWYRQAPGKERELVAAISNSGGRTYADSVKGRFTISRDNAKNTVYLQMNSLKPEDTAVYYCAKKPGGFSQASRVDYDYWGQGTQVTVSS”, for which the “polyreactivity (PSR sort gate)” value is on record as “low polyreactivity”. In the case of “QVQLVESGGGLVQAGGSLLLSCAASGFTFWNYAMGWYRQAPGKEMEFVASITWSGGSTYYADSVKGRFTISSDNAKNTVYLQMNSLKPEDTAVYYCAVGGSGYGLYGVGYALDYWGQGTQVTVSS” it was “high polyreactivity”. Regarding “QVQLVESGGGLVQAGGSLLLSCAASGFTFYGYVMGWYRQAPGKERELVAGITWRGGSTYYADSVKGRFTISRDNAKNTVYLQMNSLKPEDTAVYYCAAKSFRRGTFDYWGQGTQVTVSS”, the “polyreactivity (PSR sort gate)” value is on record as “high polyreactivity”. In the case of “QVQLVESGGGLVQAGGSLLLSCAASGGTIRYYAMGWSRQSPGKERELVAAISRGGTNTYYADSVKGRFTISRDNAKNTVYLQRNSLKPDDTAVYYCSAKRYSRYNYWGQGTQVTVSS” it was “high polyreactivity”; in that of “QVQLVESGGGLVQAGGSLLLSCAASGIIFGTNAMGWYRQAPGKERELVAGITSSGDSTYYADSVKGRFTISRDNAKNTVYLQMNSLKPEDTAVYYCAREIRTREFDSWGQGTQVTVSS”, “low polyreactivity”; in that of “QVQLVESGGGLVQAGGSLLLSCAASGIIFTRYVMGWYRQAPGKERELVATIRIGGSTTYADSVKGRFTISRDNAKITVYLQMYSLKPEDTAVYYCAADTWYITTYGGAGSYAYGFYYWGQGTQVTVSS”, “low polyreactivity”.

Turning to “QVQLVESGGGLVQAGGSLLLSCAASGITFKWNDMGWYRQAPGKEREFVAAITGSTGSTFYADSVKGRFTISRDNAKNSVYLQMNSLNTEDTAVYYCAAGPWFYYWGQGTQVTVSS”, the “polyreactivity (PSR sort gate)” value is given as “low polyreactivity”. Next, “QVQLVESGGGLVQAGGSLLLSCAASGRILWRYAMGWYRQARGKERELVAGITYSGGRTYYADSVKVRFTISRDNAKNTVYLQMNSLKPEDTAVYYCNADYADSPYFYLLLDYWGQGTQVTVSS”: “low polyreactivity”; “QVQLVESGGGLVQAGGSLLLSCAASGSIYSYYAMGWYRQAPGKERELVAAISQSGGTTYYADSVKGRFTISRDNAKNTVYLQMNSLKPEDTAVYYCAARATSSFDTQYYYWGQGTQVTVSS”: “low polyreactivity”; “QVQLVESGGGLVQAGGSLLLSCAASGSTFAPYAMAWYRQAPRKERELVATISASGGTTYYADSVKGRFTISRDNAKNTVYLQMNSLKPEDTAVYYCAKRRVWWPAHRSYLYASEFGYWGQGTQVTVSS”: “low polyreactivity”. In the case of “QVQLVESGGGLVQAGGSLLLSCAASGSTFRYYAMGWYRPAPGKERELVAATTSGGSTYYADSVKGRFTISRDNAKNTVYLQMNSLKPEDTAVYYCAKSISRYFFYRPSAAAYGYDYWGQGTQVTVSS” it was “high polyreactivity”; in that of “QVQLVESGGGLVQAGGSLLLSCAASGSTFSYYAMGWYRPAPGKERELVATITKRGGSTYYADSVKGRFTISRDNAKNTFYVQLNSLKPEDTAVYDCAASYPSRWRATYPTGFEYWGQGTQVTVSS”, “high polyreactivity”. Take “QVQLVESGGGLVQAGGSLLLSCAASGSTFYLYAMGWYRQAPGKEMELVASISQSGGSTFYADSVKGRFTISRDNAKYTVYLQMNSLKPEDTAVYYCAADPNRSTDTVVPGFDYWGQGTQVTVSS”: the “polyreactivity (PSR sort gate)” value is given as “high polyreactivity”. In the case of “QVQLVESGGGLVQAGGSLLLSCAGTARNFTYNAMGWYRQAPGKERELVARITSGGNTNYADSVKGRFTISRDNAKNTVYLQMNSLKPEDTAVYYGATGLFWFTNRYGSWGQGTQVTVSS” it was “low polyreactivity”. On to “QVQLVESGGGLVQAGGSLLLSCASSGFIFTKYTMGWYRLAPGKERELVAAITGRGTSTYADSVKGRFSMSRDNAKNTVYLQMNSLIPEDTAVYYCAAVGWFADFLFSDINGYYWGQGTQVTVSA”, for which the “polyreactivity (PSR sort gate)” value is “low polyreactivity”. In the case of “QVQLVESGGGLVQAGGSLPLRCAASGITFYGYTMGWYRQAPGKERELVAAITSVGSTYYADSVKGRFTISRDNAKNTVYLQMNSLKPEDTAVYYCNARPKFRTYNYWGQGTQVTVSS” it was “high polyreactivity”; in that of “QVQLVESGGGLVQAGGSLPLSCAASASIFSYYDMGWYRQAPGKERELVAAISWSGGSTYYADSVKGRFTISRDNAKNTVYLQMNSLKPEDTAVYYCAAGTYPYYWGQGTQVTVSS”, “low polyreactivity”; in that of “QVQLVESGGGLVQAGGSLPLSCAASGITLYLYVMGWYRQAPGKEREFVAAIRWAGGSTYYADSVKGRFTISRDNAKNTVYLHMNSLKPEDTAVYYCNAEVYGYYSARRPGYEYWGQGTQVTVSS”, “low polyreactivity”.

On to “QVQLVESGGGLVQAGGSLPLSCAASGRIYGSYAMGWYRQAPGKERELVADISRRGGGTYYADSVKGRFTISRDNAKNTVYLQMNSLKPEDTAFYYCAKDWYGRYYYWGQGTQVTVSS”, for which the “polyreactivity (PSR sort gate)” value is recorded as “high polyreactivity”. Next, “QVQLVESGGGLVQAGGSLPLSCAASGRTFDANAMGWSRQAPGKERELVAAISSDGSTNYADSVKGRFTISRDNAKNTVYLQMNSLKPEDTAVYYCATDGKPLIRYDYDYWGQGTQVTVSW”: “high polyreactivity”; “QVQLVESGGGLVQAGGSLPLSCAASGSIFDGYAMGWYSQAPGKDRELDAGISKSGGRTYYADSVKGRFTISRDNAKNTVYLQMNSLKPEDTAVYYCATPGIRYDRVYRYDYWGQGTQVTVSS”: “high polyreactivity”; “QVQLVESGGGLVQAGGSLPLSCAASGSTFRYNAMGWYRQAPAKERELVAAISSGSSTNYADSVKGRFTISLDNAKNTVYLQMKSLKPEDTAVYYCARRPFYYHQLDDDYWGQGTQVTVSS”: “low polyreactivity”. Consider “QVQLVESGGGLVQAGGSLPLSCAASGSTFSPYDMGWYIQAPGKDRELVAVITGSDGTYYADSVKGRFTITRDNAKNTVYVQMNSLKPEDTAVYYCATDWNFGRWYTLGVEMDYWGQGTQVTVSS”, for which the “polyreactivity (PSR sort gate)” value is “low polyreactivity”. Next, “QVQLVESGGGLVQAGGSLPLSCAASRLIFTPYAMGWYIQAPGKERELVAAINYGGSRTYYADSVKGRFTISRDNAKNTVYLQMNSLKPEDTAVYYCAARGYTLSYVDMYYWGQGTQVTVSS”: “high polyreactivity”; “QVQLVESGGGLVQAGGSLPLSCASSGFTLVTYAMGWYRQAPGKERELVAAISSSGTSTYYADSVKARFTISRDNAKNTVYLQMNSLKPEDTAVYYCAVDDTHPFGPDGGGDYWGQGTQVTVSS”: “low polyreactivity”; “QVQLVESGGGLVQAGGSLPLSIAASGRIFHIYAMGWYRQAPGKERELVAAISGSTSYADSVKGRFTISRDNAKNTVNLQMNSLKPEDKAVYYCAARALLPNGEYWGQGTQVTVSS”: “low polyreactivity”.
